The source of these data is US20250009896A1, “SUPR[…] BASED VIRAL […] CAPTURE FOR PREVENTION AND THERAPY OF VIRAL INFECTION” (The Johns Hopkins University, priority 2023, published 2025).

Assay [1] has as its target T1, Recombinant human angiotensin-converting enzyme 2 (ACE2) protein, carrier-free (R&D Systems) (human), Q9BYF1. Kind of assay: cell-based or functional assay.
Assay [2] deals with T1, Recombinant human ….
Assay [3] has as its target T1, Recombinant human …. Kind of assay: calculated reference value for the zeta potential of the mixture.
In assay [4] the target is T1, Recombinant human …. The source holds these as a separate data set.

T1 sequence (Q9BYF1 18-740 limits assumed): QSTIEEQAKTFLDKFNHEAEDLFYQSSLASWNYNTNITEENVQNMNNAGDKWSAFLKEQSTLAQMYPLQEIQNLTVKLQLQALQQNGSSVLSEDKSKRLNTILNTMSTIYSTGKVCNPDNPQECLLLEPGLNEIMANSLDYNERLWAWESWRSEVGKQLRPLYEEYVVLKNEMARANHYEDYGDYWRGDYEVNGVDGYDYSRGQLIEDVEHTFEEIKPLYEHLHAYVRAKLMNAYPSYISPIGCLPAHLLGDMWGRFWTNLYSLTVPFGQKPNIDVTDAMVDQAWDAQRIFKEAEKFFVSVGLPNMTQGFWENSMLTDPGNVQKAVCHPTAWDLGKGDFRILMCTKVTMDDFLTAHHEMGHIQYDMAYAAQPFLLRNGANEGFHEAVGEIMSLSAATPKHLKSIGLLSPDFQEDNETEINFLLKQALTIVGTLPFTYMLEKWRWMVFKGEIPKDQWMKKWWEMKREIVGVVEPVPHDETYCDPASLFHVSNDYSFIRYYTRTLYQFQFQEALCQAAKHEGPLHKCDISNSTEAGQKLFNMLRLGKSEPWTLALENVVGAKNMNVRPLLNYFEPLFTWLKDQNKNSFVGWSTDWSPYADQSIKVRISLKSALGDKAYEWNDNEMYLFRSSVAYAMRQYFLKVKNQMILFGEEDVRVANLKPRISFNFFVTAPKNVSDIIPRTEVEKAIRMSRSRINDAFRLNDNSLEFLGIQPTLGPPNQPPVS

B1: ACE2-docking supramolecular filaments (20:1 molar ratio of Filler to Ligand), without ACE2 (peptide)
peptide 1: VVVGEE
peptide 2: VVVGKKGGGDYSHCSPLRYYPWWKCTYPDPEGGG
modifications: not checked
For B1, in assay [1], the ACE2 enzymatic inhibition at 0 min incubation came out at 83% and the inhibition of added ACE2 (initial velocity relative to free ACE2) turned out to be 93%. Also, the zeta potential of the 20:1 filaments after addition of ACE2 (bar '20:1+ACE2'); the sheet prints -31.9 for '20:1' without ACE2 (** between the two) and -29.4 for 'Filler' alone in assay [2] was -36.7 mV.

With VVVGKKGGGDYSHCSPLRYYPWWKCTYPDPEGGG (modifications not checked) [ACE2-binding Ligand peptide amphiphile (C12-VVVGKK-GG-OEG4-DX600)], in assay [3], the intensity-averaged zeta potential calculated assuming no interaction was -17.6 mV. Moreover, the zeta potential of the mixture, measured in assay [4] is -25.1 mV.
